The text below walks through data of patent US20220125947A1 (published 2022).

To fix the notation:
T1: T cell receptor (TCR) Vγ9 (TRGV9) (human, UniProt Q99603 21-122)
T1 sequence (looked up): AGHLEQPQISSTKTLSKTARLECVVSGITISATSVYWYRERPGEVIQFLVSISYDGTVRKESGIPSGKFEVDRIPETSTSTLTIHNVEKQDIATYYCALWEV

T2: TCR gamma/delta constant region (TRGDC) (human, UniProt P0CF51 1-173; B7Z8K6 1-153)
T2 chain (looked up) 1: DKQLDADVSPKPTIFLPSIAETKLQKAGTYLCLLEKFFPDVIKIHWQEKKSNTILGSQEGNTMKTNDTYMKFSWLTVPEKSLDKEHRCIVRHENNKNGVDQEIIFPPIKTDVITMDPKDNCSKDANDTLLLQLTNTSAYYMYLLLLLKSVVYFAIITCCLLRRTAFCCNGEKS
T2 chain (looked up) 2: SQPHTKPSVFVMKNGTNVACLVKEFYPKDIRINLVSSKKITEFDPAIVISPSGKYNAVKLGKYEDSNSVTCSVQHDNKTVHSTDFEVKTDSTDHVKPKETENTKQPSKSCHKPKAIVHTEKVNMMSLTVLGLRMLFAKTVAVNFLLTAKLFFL

B1: VG9B80 (antibody, human IgG1, kappa, V domains shown)
VH: EVQLVQSGGGLVKSGGSLRLSCAASGFTFSTYSMNWVRQAPGKGLEWVSSISSSSSYIFYADSVKGRIIISRDNAKNSLYLQMNSVRADDTAVYYCAKDGELGVFDYWGQGTLVTVSS
VL: EIVLTQSPGTLSLSAGERATLSCRASQSISSSYLAWYQQKPGQAPRVLIYGPSGRATGIPDRFRGSGSGTDFTLTISRLEPEDFAVYYCQQFGRSPLTFGGGTKVEIKR
B2: VG9B140 (antibody, human IgG1, kappa, V domains shown)
VH: EVQLVESGGGLVKPGGSLRLSCAGSGFTFRSYDMNWVRQAPGKGLEWVSSISTSSGYIYYADSVKGRFTISRDNAKNSLSLQMNSLRAEDTAVFYCARDRGIAVAGDYYYGMDVWGQGTMVTVSS
VL: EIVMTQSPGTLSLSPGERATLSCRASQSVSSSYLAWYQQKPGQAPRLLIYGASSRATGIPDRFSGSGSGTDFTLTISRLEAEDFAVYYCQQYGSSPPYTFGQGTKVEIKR
B3: VG9B121 (antibody, human IgG1, kappa, V domains shown)
VH: EVQLVESGGGLVKPGGSLRLSCVASGFTFSDYAMDWVRQAPGKGLDWISSISSTSNYIFYADSVKGRFTISRDNAKNSLYLQMNSLRVEDSAVYYCANSYNWNYGGAFDIWGQGTMVTVSS
VL: DIQMTQSPGTLSSSPGERATLSCRASQSVSSSYFAWYQQKPGRAPRLLIYGASSRATGIPDRFSGSGSGTDFTLTISRLEPEDFAVYFCQQYGRSPLTFGGGTKVEIKR
B4: VG9B195 (antibody, human IgG1, lambda, V domains shown)
VH: EVQLVESGGGLVKPGGSLRLSCAASGFTFSPYTMNWVRQAPGKGLEWVSSISSSSSYMYYADSVKGRFTISRDNAKNSLYLQMNSLRAEDTAVYYCARDGDLVGPTYYFDYWGQGTLVTVSS
VL: SYELMQPPSVSVSPGQTASITCSGDKLGDKYACWYQQKPGQSPVLVIYQHNKRPSGIPERFSGSNSGKTATLTISGTQAMDEADYYCQAWDSTTVVFGGGTKLTVLG
B5: VG9B46 (antibody, human IgG1, kappa, V domains shown)
VH: EVQLVESGGGLVKPGGSLRLSCEASGFTFSINSMNWVRQAPGKGLEWVSSISSTSDYIFNADSVKGRFTISRDNAKNSLYLQMNSLRAEDTAVYYCVRDDVFGAFDIWGQGTMVTVSS
VL: EIVLTQSPGTLSLSPGERATLSCRTSQSVSRSYLGWYQQKPGQPPRLLIFGSSSRATGIPDRFSGSGSGTDFTLTISRLEPEDFAVYYCQQYSRSPLTFGGGTKVDIKR
B6: VG9B416 (antibody, human IgG1, kappa)
heavy: not shown
light: EIVLTQSPGTLSLSPGDRATLSCRASQSVASSYLAWYQQKPGQSPRLLIYGASSRATGIPDRFSGSGSGTDFTLTISRLEPEDFAVYYCQQYGSSPPYTFGQGTKLEIKRTVAAPSVFIFPPSDEQLKSGTASVVCLLNNFYPREAKVQWKVDNALQSGNSQESVTEQDSKDSTYSLSSTLTLSKADYEKHKVYACEVTHQGLSSPVTKSFNRGEC
B7: VG9B429 (antibody, human IgG1, kappa)
heavy: not shown
light: DIQMTQSPSSVSASVGDRVTITCRASQGINSWLAWYQQKPGNAPKLLIYAASSLQSGVPSRFSGIGSGTDFIFTISSLQPEDFASYYCQQANSFPWTFGQGTRLEIKRTVAAPSVFIFPPSDEQLKSGTASVVCLLNNFYPREAKVQWKVDNALQSGNSQESVTEQDSKDSTYSLSSTLTLSKADYEKHKVYACEVTHQGLSSPVTKSFNRGEC
B8: VG9B414 (antibody, human IgG1, kappa)
heavy: not shown
light: EIVMTQSPSSVSASVGDRVTITCRASQGINSWLAWYQQKPGNAPKLLIYAASSLQSGVPSRFSGIGSGTDFIFTISSLQPEDFASYYCQQANSFPWTFGQGTRLEIKRTVAAPSVFIFPPSDEQLKSGTASVVCLLNNFYPREAKVQWKVDNALQSGNSQESVTEQDSKDSTYSLSSTLTLSKADYEKHKVYACEVTHQGLSSPVTKSFNRGEC
B9: VG9B136 (antibody, human IgG1, kappa, V domains shown)
VH: QVQLQQSGPGLVKPSQTLSLTCAISGDSVSSNRAAWNWIRQSPSKGLEWLGRTYYRSKWYNEYAASVKSRMSINPDTSKNQFSLQLNSVTPEDTALYYCARDLWELREACDIWGQGTMVTVSS
VL: DIVMTQSPSFLSTFVGDRVTITCRASQGISSYLAWYQQKPGKVPKLLIYVASTLQSGVPSRFSGSGSGTEFTLTISSLQPEDFATYYCQQLNSYPFTFGPGTKVDIKR
B10: VG9B144 (antibody, human IgG1, lambda, V domains shown)
VH: QVQLVQSGAEVKKPGASVKVSCKASGYTFTGYYMHWMRQAPGQGLEWMGWINPNSGATNKEQKFQGRVTMTRDTSISTAYMELSRLRSDDTAVYYCAREDDAFDVWGQGTMVTVSS
VL: SSELTQDPAVSVALGQTVRITCQGDNLRNYYATWFQQKPGQAPVLVFFGKNNRPSGIPDRFSGSSSGDTASLTITGAQAEDEADYYCNSRDSSGNHVVFGGGTKLTVLG
B11: VG9B369 (antibody, human IgG1, kappa, V domains shown)
VH: EVQLLESGPTLVKPTQTLTLTCTFSGFSLSTIGVGVGWIRQPPGKALEWLSLIYWNDDKRYNPSLKSRLTITKDTSKNQVVLTMTNMDPVDTATYYCAHSHDWVHAFDIWGQGTMVTVSS
VL: DIVMTQSPSSLSASVGDRVTITCQASQDISHYLNWYQQKPGKAPKFLIYDASNLDTGVPSRFSGSGSGTDFTFTISSLQPEDIATYYCQQYDNFPLTFGGGTKVEIKR
B12: VG9B410 (antibody, human IgG1, kappa)
heavy: not shown
light: DIQMTQSPSSVSASVGDRVTITCRASQGINSWLAWYQQKPGNAPKLLIYAASSLQSGVPSRFSGIGSGTDFIFTISSLQPEDFASYYCQQANSFPWTFGQGTKVEIKRTVAAPSVFIFPPSDEQLKSGTASVVCLLNNFYPREAKVQWKVDNALQSGNSQESVTEQDSKDSTYSLSSTLTLSKADYEKHKVYACEVTHQGLSSPVTKSFNRGEC
Throughout, for CD25+ (Vg9+ cells), flow staining: test concentration or dose not given here.
Throughout, for CD71+ (Vg9+ cells), flow staining: test concentration or dose not given here.
Throughout, for Granzyme B, Luminex (supernatant): unit not given here.
Throughout, for IL6, Luminex (supernatant): unit not given here.
Throughout, for TNFα, Luminex (supernatant): unit not given here.

One experiment addresses T1, T cell receptor (TCR) Vγ9 (TRGV9). The experiment is described as follows: cell-based or functional assay.
Take B1: the “CD25+ (Vg9+ cells), flow staining” value is 49.6%; the “CD71+ (Vg9+ cells), flow staining” value came to 98.3%; the “Granzyme B, Luminex (supernatant)” value is 3010; the “IFNγ, Luminex (supernatant)” value worked out at 1360. The “IL6, Luminex (supernatant)” value was 385; the “TNFα, Luminex (supernatant)” value was determined as 4910; the “Vg9 T cell %, flow staining” value is 5.2%.

As to B2, the “CD25+ (Vg9+ cells), flow staining” value was 20.4%; the “CD71+ (Vg9+ cells), flow staining” value was 70.6%; the “Granzyme B, Luminex (supernatant)” value was 2160; the “IFNγ, Luminex (supernatant)” value turned out to be 796. Besides, the “IL6, Luminex (supernatant)” value stood at 602; the “TNFα, Luminex (supernatant)” value turned out to be 3520; the “Vg9 T cell %, flow staining” value amounted to 3.9%.

In the case of B3, the “CD25+ (Vg9+ cells), flow staining” value came to 50.9%; the “CD71+ (Vg9+ cells), flow staining” value worked out at 98.7%; the “Granzyme B, Luminex (supernatant)” value came to 1350; the “IFNγ, Luminex (supernatant)” value amounted to 429. The “IL6, Luminex (supernatant)” value stood at 161; the “TNFα, Luminex (supernatant)” value is 96; the “Vg9 T cell %, flow staining” value was determined as 16.1%.

For B4, the “CD25+ (Vg9+ cells), flow staining” value is 15.8%; the “CD71+ (Vg9+ cells), flow staining” value amounted to 86.9%; the “Granzyme B, Luminex (supernatant)” value stood at 1060; the “IFNγ, Luminex (supernatant)” value amounted to 303. The “IL6, Luminex (supernatant)” value was 166; the “TNFα, Luminex (supernatant)” value amounted to 61; the “Vg9 T cell %, flow staining” value turned out to be 3.7%.

Turning to B5, the “CD25+ (Vg9+ cells), flow staining” value came out at 37.9%; the “CD71+ (Vg9+ cells), flow staining” value worked out at 95.8%; the “Granzyme B, Luminex (supernatant)” value came to 3170; the “IFNγ, Luminex (supernatant)” value turned out to be 1150. The “IL6, Luminex (supernatant)” value was 375; the “TNFα, Luminex (supernatant)” value worked out at 5260; the “Vg9 T cell %, flow staining” value turned out to be 4.4%.

Turning to B6, the “CD25+ (Vg9+ cells), flow staining” value was 46.4%; the “CD71+ (Vg9+ cells), flow staining” value was found to be 98.8%; the “Granzyme B, Luminex (supernatant)” value was 3390; the “IFNγ, Luminex (supernatant)” value was 1180. In addition, the “IL6, Luminex (supernatant)” value stood at 225; the “TNFα, Luminex (supernatant)” value was found to be 87; the “Vg9 T cell %, flow staining” value came to 13.9%.

Turning to B7, the “CD25+ (Vg9+ cells), flow staining” value was found to be 25.8%; the “CD71+ (Vg9+ cells), flow staining” value was found to be 91.6%; the “Granzyme B, Luminex (supernatant)” value came out at 2150; the “IFNγ, Luminex (supernatant)” value amounted to 1250. Further, the “IL6, Luminex (supernatant)” value came to 816; the “TNFα, Luminex (supernatant)” value worked out at 583; the “Vg9 T cell %, flow staining” value was determined as 3%.

As to B8, the “CD25+ (Vg9+ cells), flow staining” value is 24.8%; the “CD71+ (Vg9+ cells), flow staining” value was found to be 88.1%; the “Granzyme B, Luminex (supernatant)” value came out at 1490; the “IFNγ, Luminex (supernatant)” value was determined as 476. The “IL6, Luminex (supernatant)” value is 219; the “TNFα, Luminex (supernatant)” value stood at 186; the “Vg9 T cell %, flow staining” value was 4%.

The next experiment concerns the target T2, TCR gamma/delta constant region (TRGDC). The experiment is described as follows: cell-based or functional assay.
Take B9: the “CD25+ (Vg9+ cells), flow staining” value was 33.3%; the “CD71+ (Vg9+ cells), flow staining” value came out at 94.9%; the “Granzyme B; Luninex (supernatant)” value came out at 1540; the “IFNγ; Luninex (supernatant)” value worked out at 560. In addition, the “IL6; Luninex (supernatant)” value was determined as 279; the “TNFα; Luninex (supernatant)” value was found to be 192; the “Vg9 T cell %, flow staining” value was determined as 5.7%.

On to B10, for which the “CD25+ (Vg9+ cells), flow staining” value was 20.6%; the “CD71+ (Vg9+ cells), flow staining” value came to 89.6%; the “Granzyme B; Luninex (supernatant)” value is 1760; the “IFNγ; Luninex (supernatant)” value is 352. Further, the “IL6; Luninex (supernatant)” value came to 123; the “TNFα; Luninex (supernatant)” value is 215; the “Vg9 T cell %, flow staining” value stood at 3.8%.

As for B11, the “CD25+ (Vg9+ cells), flow staining” value was determined as 27.1%; the “CD71+ (Vg9+ cells), flow staining” value came out at 92.4%; the “Granzyme B; Luninex (supernatant)” value was 2630; the “IFNγ; Luninex (supernatant)” value came out at 1460. Further, the “IL6; Luninex (supernatant)” value was 4900; the “TNFα; Luninex (supernatant)” value was 138; the “Vg9 T cell %, flow staining” value came to 6.1%.

As to B12, the “CD25+ (Vg9+ cells), flow staining” value amounted to 36.5%; the “CD71+ (Vg9+ cells), flow staining” value was determined as 98.2%; the “Granzyme B; Luninex (supernatant)” value was found to be 4390; the “IFNγ; Luninex (supernatant)” value is 2120. Further, the “IL6; Luninex (supernatant)” value is 590; the “TNFα; Luninex (supernatant)” value worked out at 158; the “Vg9 T cell %, flow staining” value was found to be 12.3%.
